B1: Mothers against decapentaplegic homolog 4 (Homo sapiens), Q13485 (parent)
chain: MDNMSITNTPTSNDACLSIVHSLMCHRQGGESETFAKRAIESLVKKLKEKKDELDSLITAITTNGAHPSKCVTIQRTLDGRLQVAGRKGFPHVIYARLWRWPDLHKNELKHVKYCQYAFDLKCDSVCVNPYHYERVVSPGIDLSGLTLQSNAPSSMMVKDEYVHDFEGQPSLSTEGHSIQTIQHPPSNRASTETYSTPALLAPSESNATSTANFPNIPVASTSQPASILGGSHSEGLLQIASGPQPGQQQNGFTGQPATYHHNSTTTWTGSRTAPYTPNLPHHQNGHLQHHPPMPPHPGHYWPVHNELAFQPPISNHPAPEYWCSIAYFEMDVQVGETFKVPSSCPIVTVDGYVDPSGGDRFCLGQLSNVHRTEAIERARLHIGKGVQLECKGEGDVWVRCLSDHAVFVQSYYLDREAGRAPGDAVHKIYPSAYIKVFDLRQCHRQMQQQAATAQAAAAAQAAAVAGNIPGPGSVGGIAPAISLSAAAGIGVDDLRRLCILRMSFVKGWGPDYPRQSIKETPCWIEIHLHRALQLLDEVLHTMPIADPQPLD

Variants of: B1
Details: with etv1_human ETV1, P50549

effect of a mutation on the interaction	Variant
with no effect	G386D

Variants of: B1
Details: with ezh2_human EZH2, Q15910

effect of a mutation on the interaction	Variant
with no effect	G386D

Variants of: B1
Details: with fadd_human FADD

effect of a mutation on the interaction	Variant
with no effect	G386D

Variants of: B1
Details: with facd2_human FANCD2, Q9BXW9

effect of a mutation on the interaction	Variant
with no effect	G386D

Variants of: B1
Details: with tnr6_human FAS

effect of a mutation on the interaction	Variant
with no effect	G386D

Variants of: B1
Details: with fgf19_human FGF19, O95750
Sequence of fgf19_human FGF19, O95750 (O95750 whole entry): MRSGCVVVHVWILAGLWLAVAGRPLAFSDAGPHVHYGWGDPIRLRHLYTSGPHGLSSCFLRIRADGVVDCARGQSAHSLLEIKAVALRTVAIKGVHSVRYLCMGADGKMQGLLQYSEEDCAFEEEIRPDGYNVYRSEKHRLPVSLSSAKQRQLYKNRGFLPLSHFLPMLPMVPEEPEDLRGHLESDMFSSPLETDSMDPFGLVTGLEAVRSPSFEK

effect of a mutation on the interaction	Variant
with no effect	G386D

Variants of: B1
Details: with fgfr3_human FGFR3, P22607
Sequence of fgfr3_human FGFR3, P22607 (P22607 whole entry, looked up): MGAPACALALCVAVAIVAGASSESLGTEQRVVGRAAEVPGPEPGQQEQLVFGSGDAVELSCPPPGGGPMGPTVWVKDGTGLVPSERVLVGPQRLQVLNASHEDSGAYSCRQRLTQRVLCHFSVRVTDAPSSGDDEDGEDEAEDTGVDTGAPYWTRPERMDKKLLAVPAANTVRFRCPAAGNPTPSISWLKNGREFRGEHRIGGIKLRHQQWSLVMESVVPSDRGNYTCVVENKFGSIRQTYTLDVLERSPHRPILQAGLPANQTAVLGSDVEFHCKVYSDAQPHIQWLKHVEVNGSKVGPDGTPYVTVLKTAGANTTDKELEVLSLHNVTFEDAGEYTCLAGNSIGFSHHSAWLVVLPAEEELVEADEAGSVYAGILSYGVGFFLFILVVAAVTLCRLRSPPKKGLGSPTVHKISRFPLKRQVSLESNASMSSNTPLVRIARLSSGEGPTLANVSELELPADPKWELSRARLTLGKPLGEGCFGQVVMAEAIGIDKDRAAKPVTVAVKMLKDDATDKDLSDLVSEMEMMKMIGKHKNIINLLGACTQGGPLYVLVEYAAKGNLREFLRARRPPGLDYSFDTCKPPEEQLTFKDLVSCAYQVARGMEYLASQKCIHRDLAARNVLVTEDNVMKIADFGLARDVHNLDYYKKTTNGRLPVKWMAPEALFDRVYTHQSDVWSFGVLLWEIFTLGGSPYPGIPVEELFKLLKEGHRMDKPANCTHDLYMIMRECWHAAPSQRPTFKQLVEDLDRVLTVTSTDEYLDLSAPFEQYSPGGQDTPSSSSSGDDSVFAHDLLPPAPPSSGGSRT

effect of a mutation on the interaction	Variant
with no effect	G386D

Variants of: B1
Details: with fgfr4_human FGFR4, P22455

effect of a mutation on the interaction	Variant
with no effect	G386D

Variants of: B1
Details: with foxo1_human FOXO1, Q12778

effect of a mutation on the interaction	Variant
with no effect	G386D

Variants of: B1
Details: with foxo3_human FOXO3, O43524

effect of a mutation on the interaction	Variant
with no effect	G386D

Variants of: B1
Details: with gbra6_human GABRA6, Q16445

effect of a mutation on the interaction	Variant
with no effect	G386D

Variants of: B1
Details: with gata2_human GATA2, P23769

effect of a mutation on the interaction	Variant
with no effect	G386D

Variants of: B1
Details: with gata3_human GATA3, P23771

effect of a mutation on the interaction	Variant
with no effect	G386D

Variants of: B1
Details: with gna11_human GNA11, P29992

effect of a mutation on the interaction	Variant
with no effect	G386D

Variants of: B1
Details: with gna13_human GNA13, Q14344

effect of a mutation on the interaction	Variant
with no effect	G386D

Variants of: B1
Details: with gnaq_human GNAQ

effect of a mutation on the interaction	Variant
with no effect	G386D

Variants of: B1
Details: with grm1_human GRM1, Q13255

effect of a mutation on the interaction	Variant
with no effect	G386D

Variants of: B1
Details: with grm3_human GRM3, Q14832

effect of a mutation on the interaction	Variant
with no effect	G386D

Variants of: B1
Details: with gsk3a_human GSK3A

effect of a mutation on the interaction	Variant
with no effect	G386D

Variants of: B1
Details: with gsk3b_human GSK3B

effect of a mutation on the interaction	Variant
with no effect	G386D

Variants of: B1
Details: with hdac1_human HDAC1, Q13547

effect of a mutation on the interaction	Variant
with no effect	G386D

Variants of: B1
Details: with hdac3_human HDAC3, O15379

effect of a mutation on the interaction	Variant
with no effect	G386D

Variants of: B1
Details: with hgf_human HGF

effect of a mutation on the interaction	Variant
with no effect	G386D

Variants of: B1
Details: with hif1a_human HIF1A

effect of a mutation on the interaction	Variant
with no effect	G386D

Variants of: B1
Details: with h31_human H3C1, P68431

effect of a mutation on the interaction	Variant
with no effect	G386D

Variants of: B1
Details: with hlab_human HLA-B

effect of a mutation on the interaction	Variant
with no effect	G386D

Variants of: B1
Details: with hnf1a_human HNF1A

effect of a mutation on the interaction	Variant
with no effect	G386D

Variants of: B1
Details: with rash_human HRAS

effect of a mutation on the interaction	Variant
with no effect	G386D

Variants of: B1
Details: with hs90a_human HSP90AA1, P07900

effect of a mutation on the interaction	Variant
with no effect	G386D

Variants of: B1
Details: with igf2_human IGF2, P01344

effect of a mutation on the interaction	Variant
with no effect	G386D

Variants of: B1
Details: with il7ra_human IL7R

effect of a mutation on the interaction	Variant
with no effect	G386D

Variants of: B1
Details: with int12_human INTS12, Q96CB8

effect of a mutation on the interaction	Variant
with no effect	G386D

Variants of: B1
Details: with irf6_human IRF6, O14896

effect of a mutation on the interaction	Variant
with no effect	G386D

Variants of: B1
Details: with irs1_human IRS1, P35568

effect of a mutation on the interaction	Variant
with no effect	G386D

Variants of: B1
Details: with ist1_human IST1, P53990

effect of a mutation on the interaction	Variant
with no effect	G386D

Variants of: B1
Details: with jak1_human JAK1, P23458

effect of a mutation on the interaction	Variant
with no effect	G386D

Variants of: B1
Details: with jak3_human JAK3, P52333

effect of a mutation on the interaction	Variant
with no effect	G386D

Variants of: B1
Details: with kat2a_human KAT2A

effect of a mutation on the interaction	Variant
with no effect	G386D

Variants of: B1
Details: with kdm5c_human KDM5C

effect of a mutation on the interaction	Variant
with no effect	G386D

Variants of: B1
Details: with kdm6a_human KDM6A

effect of a mutation on the interaction	Variant
with no effect	G386D

Variants of: B1
Details: with vgfr2_human KDR

effect of a mutation on the interaction	Variant
with no effect	G386D

Variants of: B1
Details: with keap1_human KEAP1, Q14145

effect of a mutation on the interaction	Variant
with no effect	G386D

Variants of: B1
Details: with klf4_human KLF4, O43474

effect of a mutation on the interaction	Variant
with no effect	G386D

Variants of: B1
Details: with lims1_human LIMS1, P48059

effect of a mutation on the interaction	Variant
with no effect	G386D

Variants of: B1
Details: with maga6_human MAGEA6, P43360

effect of a mutation on the interaction	Variant
with no effect	G386D

Variants of: B1
Details: with mp2k7_human MAP2K7, O14733
Sequence of mp2k7_human MAP2K7, O14733 (O14733 whole entry): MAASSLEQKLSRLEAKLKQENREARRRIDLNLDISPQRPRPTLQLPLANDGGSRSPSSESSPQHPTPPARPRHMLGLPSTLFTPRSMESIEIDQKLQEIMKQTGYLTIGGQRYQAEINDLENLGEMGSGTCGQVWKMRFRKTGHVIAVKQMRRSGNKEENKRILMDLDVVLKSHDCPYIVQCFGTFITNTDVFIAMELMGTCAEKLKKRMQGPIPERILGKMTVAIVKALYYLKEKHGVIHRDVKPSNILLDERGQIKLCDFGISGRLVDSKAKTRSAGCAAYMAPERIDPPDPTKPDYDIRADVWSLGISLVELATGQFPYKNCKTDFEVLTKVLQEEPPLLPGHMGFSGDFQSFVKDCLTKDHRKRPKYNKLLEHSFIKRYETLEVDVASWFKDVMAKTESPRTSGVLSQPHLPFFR

effect of a mutation on the interaction	Variant
with no effect	G386D

Variants of: B1
Details: with m3k1_human MAP3K1, Q13233

effect of a mutation on the interaction	Variant
with no effect	G386D

Variants of: B1
Details: with m3k5_human MAP3K5, Q99683
Sequence of m3k5_human MAP3K5, Q99683 (Q99683 whole entry): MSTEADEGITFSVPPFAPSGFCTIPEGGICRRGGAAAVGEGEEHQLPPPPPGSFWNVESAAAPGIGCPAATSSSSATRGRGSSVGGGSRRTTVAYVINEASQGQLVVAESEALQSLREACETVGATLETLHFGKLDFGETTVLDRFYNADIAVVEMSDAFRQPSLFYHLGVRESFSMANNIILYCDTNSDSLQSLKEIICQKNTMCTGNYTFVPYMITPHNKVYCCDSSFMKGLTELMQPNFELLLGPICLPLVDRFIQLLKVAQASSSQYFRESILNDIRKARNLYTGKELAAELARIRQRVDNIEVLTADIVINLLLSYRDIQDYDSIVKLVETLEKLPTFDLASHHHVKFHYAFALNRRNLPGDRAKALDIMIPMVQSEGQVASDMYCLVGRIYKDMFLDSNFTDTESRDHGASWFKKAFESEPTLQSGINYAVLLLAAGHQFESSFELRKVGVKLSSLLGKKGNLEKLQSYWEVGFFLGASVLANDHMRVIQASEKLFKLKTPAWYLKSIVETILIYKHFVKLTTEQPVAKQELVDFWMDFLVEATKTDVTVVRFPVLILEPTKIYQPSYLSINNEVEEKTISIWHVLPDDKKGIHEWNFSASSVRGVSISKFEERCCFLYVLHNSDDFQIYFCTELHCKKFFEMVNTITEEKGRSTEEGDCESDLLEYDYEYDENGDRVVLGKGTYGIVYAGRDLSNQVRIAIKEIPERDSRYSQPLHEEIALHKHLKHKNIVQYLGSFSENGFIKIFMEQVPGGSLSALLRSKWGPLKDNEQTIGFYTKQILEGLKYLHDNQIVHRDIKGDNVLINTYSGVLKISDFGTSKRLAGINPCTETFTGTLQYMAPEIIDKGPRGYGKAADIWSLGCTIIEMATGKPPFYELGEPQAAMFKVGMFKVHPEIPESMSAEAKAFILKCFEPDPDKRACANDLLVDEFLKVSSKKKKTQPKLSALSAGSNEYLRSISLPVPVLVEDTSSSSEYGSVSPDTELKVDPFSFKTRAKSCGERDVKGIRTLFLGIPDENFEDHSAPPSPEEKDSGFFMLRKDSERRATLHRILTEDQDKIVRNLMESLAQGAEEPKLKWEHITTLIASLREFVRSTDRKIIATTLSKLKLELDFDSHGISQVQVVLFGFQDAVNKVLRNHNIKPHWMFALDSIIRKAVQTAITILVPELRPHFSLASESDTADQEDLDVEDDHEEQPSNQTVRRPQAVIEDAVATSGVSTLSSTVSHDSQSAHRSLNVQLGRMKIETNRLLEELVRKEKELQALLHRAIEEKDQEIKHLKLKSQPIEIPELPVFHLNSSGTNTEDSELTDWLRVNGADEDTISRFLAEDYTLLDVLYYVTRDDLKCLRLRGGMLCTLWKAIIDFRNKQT

effect of a mutation on the interaction	Variant
with no effect	G386D

Variants of: B1
Details: with mk10_human MAPK10, P53779
Sequence of mk10_human MAPK10, P53779 (P53779 whole entry): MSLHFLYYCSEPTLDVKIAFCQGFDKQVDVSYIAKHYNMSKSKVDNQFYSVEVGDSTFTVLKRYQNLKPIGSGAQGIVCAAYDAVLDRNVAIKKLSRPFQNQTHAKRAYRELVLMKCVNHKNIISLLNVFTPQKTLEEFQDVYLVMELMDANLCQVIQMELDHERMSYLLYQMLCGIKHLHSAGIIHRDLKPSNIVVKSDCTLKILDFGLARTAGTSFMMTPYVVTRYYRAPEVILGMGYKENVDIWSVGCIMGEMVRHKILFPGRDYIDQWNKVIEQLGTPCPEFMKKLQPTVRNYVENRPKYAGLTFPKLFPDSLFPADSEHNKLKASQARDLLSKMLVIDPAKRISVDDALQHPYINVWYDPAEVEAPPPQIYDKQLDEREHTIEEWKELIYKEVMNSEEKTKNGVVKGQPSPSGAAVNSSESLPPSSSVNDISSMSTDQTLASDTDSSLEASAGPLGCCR

effect of a mutation on the interaction	Variant
with no effect	G386D

Variants of: B1
Details: with mk14_human MAPK14, Q16539

effect of a mutation on the interaction	Variant
with no effect	G386D

Variants of: B1
Details: with mk03_human MAPK3, P27361
Sequence of mk03_human MAPK3, P27361 (P27361 whole entry): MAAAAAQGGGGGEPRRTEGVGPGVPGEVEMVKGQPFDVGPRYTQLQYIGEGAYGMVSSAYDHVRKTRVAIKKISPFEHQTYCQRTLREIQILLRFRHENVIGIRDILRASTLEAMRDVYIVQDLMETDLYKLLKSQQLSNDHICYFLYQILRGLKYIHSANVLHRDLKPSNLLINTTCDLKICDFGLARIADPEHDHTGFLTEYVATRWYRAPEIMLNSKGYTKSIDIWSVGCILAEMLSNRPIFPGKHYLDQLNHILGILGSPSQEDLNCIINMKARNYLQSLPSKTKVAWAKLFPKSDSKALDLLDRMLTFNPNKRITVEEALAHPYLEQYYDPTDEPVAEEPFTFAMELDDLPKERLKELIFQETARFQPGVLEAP

effect of a mutation on the interaction	Variant
with no effect	G386D

Variants of: B1
Details: with mk04_human MAPK4, P31152

effect of a mutation on the interaction	Variant
with no effect	G386D

Variants of: B1
Details: with mk06_human MAPK6, Q16659

effect of a mutation on the interaction	Variant
with no effect	G386D

Variants of: B1
Details: with mk07_human MAPK7, Q13164

effect of a mutation on the interaction	Variant
with no effect	G386D

Variants of: B1
Details: with mcl1_human MCL1, Q07820

effect of a mutation on the interaction	Variant
with no effect	G386D

Variants of: B1
Details: with mitf_human MITF

effect of a mutation on the interaction	Variant
with no effect	G386D

Variants of: B1
Details: with mtor_human MTOR

effect of a mutation on the interaction	Variant
with no effect	G386D

Variants of: B1
Details: with myc_human MYC

effect of a mutation on the interaction	Variant
with no effect	G386D

Variants of: B1
Details: with nf1_human NF1, P21359

effect of a mutation on the interaction	Variant
with no effect	G386D

Variants of: B1
Details: with merl_human NF2, P35240

effect of a mutation on the interaction	Variant
with no effect	G386D

Variants of: B1
Details: with nfic_human NFIC

effect of a mutation on the interaction	Variant
with no effect	G386D

Variants of: B1
Details: with ikba_human NFKBIA

effect of a mutation on the interaction	Variant
with no effect	G386D

Variants of: B1
Details: with notc2_human NOTCH2, Q04721

effect of a mutation on the interaction	Variant
with no effect	G386D

Variants of: B1
Details: with nox1_human NOX1, Q9Y5S8

effect of a mutation on the interaction	Variant
with no effect	G386D

Variants of: B1
Details: with ntrk2_human NTRK2, Q16620

effect of a mutation on the interaction	Variant
with no effect	G386D

Variants of: B1
Details: with pak3_human PAK3, O75914

effect of a mutation on the interaction	Variant
with no effect	G386D

Variants of: B1
Details: with prkn_human PRKN

effect of a mutation on the interaction	Variant
with no effect	G386D

Variants of: B1
Details: with pax5_human PAX5, Q02548

effect of a mutation on the interaction	Variant
with no effect	G386D

Variants of: B1
Details: with pax9_human PAX9, P55771
Sequence of pax9_human PAX9, P55771 (P55771 whole entry): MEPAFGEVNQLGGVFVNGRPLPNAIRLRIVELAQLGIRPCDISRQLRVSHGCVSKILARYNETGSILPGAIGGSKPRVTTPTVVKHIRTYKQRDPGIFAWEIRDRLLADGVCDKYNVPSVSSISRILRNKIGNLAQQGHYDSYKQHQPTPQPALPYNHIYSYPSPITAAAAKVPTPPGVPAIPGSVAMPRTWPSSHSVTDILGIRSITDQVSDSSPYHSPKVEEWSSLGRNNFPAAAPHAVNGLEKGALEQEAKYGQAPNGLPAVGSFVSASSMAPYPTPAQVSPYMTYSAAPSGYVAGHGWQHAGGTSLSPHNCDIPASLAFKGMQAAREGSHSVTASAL

effect of a mutation on the interaction	Variant
with no effect	G386D

Variants of: B1
Details: with pb1_human PBRM1, Q86U86

effect of a mutation on the interaction	Variant
with no effect	G386D

Variants of: B1
Details: with pcbp1_human PCBP1, Q15365

effect of a mutation on the interaction	Variant
with no effect	G386D

Variants of: B1
Details: with pgfra_human PDGFRA

effect of a mutation on the interaction	Variant
with no effect	G386D

Variants of: B1
Details: with pgfrb_human PDGFRB

effect of a mutation on the interaction	Variant
with no effect	G386D

Variants of: B1
Details: with pdk1_human PDK1, Q15118

effect of a mutation on the interaction	Variant
with no effect	G386D

Variants of: B1
Details: with PIK3C2B

effect of a mutation on the interaction	Variant
with no effect	G386D

Variants of: B1
Details: with pk3c3_human PIK3C3, Q8NEB9

effect of a mutation on the interaction	Variant
with no effect	G386D

Variants of: B1
Details: with pk3ca_human PIK3CA

effect of a mutation on the interaction	Variant
with no effect	G386D

Variants of: B1
Details: with pk3cb_human PIK3CB

effect of a mutation on the interaction	Variant
with no effect	G386D

Variants of: B1
Details: with pk3cg_human PIK3CG

effect of a mutation on the interaction	Variant
with no effect	G386D

Variants of: B1
Details: with p85a_human PIK3R1, P27986
Sequence of p85a_human PIK3R1, P27986 (P27986 whole entry): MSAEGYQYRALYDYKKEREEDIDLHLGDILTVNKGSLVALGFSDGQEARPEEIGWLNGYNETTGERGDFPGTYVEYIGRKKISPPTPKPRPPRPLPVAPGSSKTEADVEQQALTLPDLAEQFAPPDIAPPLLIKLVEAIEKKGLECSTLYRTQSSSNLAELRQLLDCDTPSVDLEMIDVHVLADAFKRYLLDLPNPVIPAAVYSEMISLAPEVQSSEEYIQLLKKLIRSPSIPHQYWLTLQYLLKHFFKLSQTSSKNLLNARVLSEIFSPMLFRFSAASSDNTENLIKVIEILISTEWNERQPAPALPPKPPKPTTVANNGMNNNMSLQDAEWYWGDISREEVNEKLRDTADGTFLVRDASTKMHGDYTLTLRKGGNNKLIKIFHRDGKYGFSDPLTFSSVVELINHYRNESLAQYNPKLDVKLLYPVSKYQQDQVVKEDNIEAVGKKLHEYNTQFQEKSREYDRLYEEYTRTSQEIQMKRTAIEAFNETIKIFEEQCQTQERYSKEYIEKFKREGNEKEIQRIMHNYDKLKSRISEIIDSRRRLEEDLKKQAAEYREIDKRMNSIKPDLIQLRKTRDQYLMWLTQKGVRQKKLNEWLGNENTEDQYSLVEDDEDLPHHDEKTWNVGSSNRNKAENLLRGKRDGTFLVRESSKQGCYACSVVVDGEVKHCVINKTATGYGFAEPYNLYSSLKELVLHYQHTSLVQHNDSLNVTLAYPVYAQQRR

effect of a mutation on the interaction	Variant
with no effect	G386D

Reference: IntAct's records for PubMed 35512704
